According to patent US11560546B2, “Methods for neural conversion of human embryonic stem cells” (MEMORIAL SLOAN KETTERING CANCER CENTER, priority 2009, dated 2023):
Entries after “also recorded” stand apart in the source; their conditions may differ.

B1: Wnt-1: caudalizing factor (Peprotech 50 ng/ml) (protein, UniProt P04628 28-370, looked up)
Proto-oncogene Wnt-1: ANSSGRWWGIVNVASSTNLLTDSKSLQLVLEPSLQLLSRKQRRLIRQNPGILHSVSGGLQSAVRECKWQFRNRRWNCPTAPGPHLFGKIVNRGCRETAFIFAITSAGVTHSVARSCSEGSIESCTCDYRRRGPGGPDWHWGGCSDNIDFGRLFGREFVDSGEKGRDLRFLMNLHNNEAGRTTVFSEMRQECKCHGMSGSCTVRTCWMRLPTLRAVGDVLRDRFDGASRVLYGNRGSNRASRAELLRLEPEDPAHKPPSPHDLVYFEKSPNFCTYSGRLGTAGTAGRACNSSSPALDGCELLCCGRGHRTRTQRVTERCNCTFHWCCHVSCRNCTHTRVLHECL
B2: Wnt3A: WNT protein added to neural rosette stage cells (protein, UniProt P56704 19-352, looked up)
Protein Wnt-3a: SYPIWWSLAVGPQYSSLGSQPILCASIPGLVPKQLRFCRNYVEIMPSVAEGIKIGIQECQHQFRGRRWNCTTVHDSLAIFGPVLDKATRESAFVHAIASAGVAFAVTRSCAEGTAAICGCSSRHQGSPGKGWKWGGCSEDIEFGGMVSREFADARENRPDARSAMNRHNNEAGRQAIASHMHLKCKCHGLSGSCEVKTCWWSQPDFRAIGDFLKDKYDSASEMVVEKHRESRGWVETLRPRYTYFKVPTERDLVYYEASPNFCEPNPETGSFGTRDRTCNVSSHGIDGCDLLCCGRGHNARAERRREKCRCVFHWCCYVSCQECTRVYDVHTCK
B3: FGF8: caudalizing factor (R&D 50 ng/ml) (protein, UniProt P55075 23-233, looked up)
Fibroblast growth factor 8: QEGPGRGPALGRELASLFRAGREPQGVSQQHVREQSLVTDQLSRRLIRTYQLYSRTSGKHVQVLANKRINAMAEDGDPFAKLIVETDTFGSRVRVRGAETGLYICMNKKGKLIAKSNGKGKDCVFTEIVLENNYTALQNAKYEGWYMAFTRKGRPRKGSKTRQHQREVHFMKRLPRGHHTTEQSLRFEFLNYPPFTRSLRGSQRTWAPEPR

Assays:
Type in all cases: cell-based, human
[1] = system: rosette-stage neural cells; experiment: Floor plate induction in stromal-feeder (MS5) derived / rosette-stage neural cells; conditions: added to neural rosette stage cells
Experimental: (§1) For MS5 induction, established methods previously reported were used (Perrier et al., 2004). Feeder free neural induction was carried out as previously described (Chambers et al., 2009). Briefly, hESCs cultures were disaggregated using accutase for 20 minutes, washed using hESCs media and pre-plated on gelatin for 1 hour at 37° C. in the presence of ROCK inhibitor to remove MEFs. The nonadherent hESCs were washed and plated on matrigel at a density of 20,000 cells/cm2 on matrigel (BD) coated dishes in MEF conditioned hESCs media (CM) spiked with 10 ng/mL of FGF-2 and ROCK-inhibitor. The ROCK inhibitor was withdrawn, and hESCs were allowed to expand in CM for 3 days or until they were nearly confluent. The initial differentiation media conditions included knock out serum replacement (KSR) media with […] TGF-b inhibitor (SB431542, Tocris) and 500 ng/mL of Noggin (R&D). Upon day 5 of differentiation, increasing amounts of N2 media (25%, 50%, 75%) was added to the KSR media every two days while maintaining 500 ng/mL of Noggin and TGF-b inhibitor. For FP induction, Sonic C25II was added at 200 ng/ml.
hESC derived neural cells at the rosette stage were differentiated into both CNS and PNS progeny and patterned towards multiple cells fates along the A/P and D/V axis (Elkabetz et al., 2008). […] Specification of progenitor cells into FP tissue and cells during mouse development was thought to depend on SHH signaling within early neural lineages. The inventors tested whether rosette-stage neural cells were competent to undergo FP specification in response to SHH. High concentrations of SHH were needed to induce FP during mouse development (Roelink et al., 1994; Ericson et al., 1996). Recombinant N-terminal SHH has a limited activity range due to the lack of posttranslational modifications required for full SHH action. Recently, a modified version of recombinant SHH became available where SHH was tethered to two Isoleucines (Sonic C25II, R&D Systems), mimicking more closely the potency of mammalian SHH protein.
The majority of cells retained rosette cytoarchitecture and staining for the AN marker BF1 as described previously (FIG. 1A) (Elkabetz et al., 2008).
Based on the hypothesis that FP specification in the mouse occurs at early developmental stages, at the time of or prior to neural induction, the inventors repeated SHH induction studies at Day 9, the time of rosette specification, using classic stromal-feeder mediated neural induction protocols (Elkabetz et al., 2008). Under this paradigm the inventors noticed a drastic change in cell morphology restricted to the cells treated with SHH-C25II (FIG. 1B).

hESCs [2] = experiment: Floor plate induction in NSB protocol, FOXA2 immunostaining; conditions: added early along FP differentiation; BIO 100 nM
Experimental: as §1
Tissue was fixed using 4% paraformaldehyde and Picric acid for 15 minutes, washed with PBS, permeablized using 0.3% Triton X in PBS, and blocked using 10% Donkey Serum. Primary antibodies used for microscopy included PAX6 (Covance), TUJ1 (Covance), ZO1 (Zymed), BF1 (FOXG1, gift E.Lai), TH (Pelfreez), NKX6.1 (DSHB) and FOXA2 (SantaCruz).
Using this protocol, in combination with compositions and methods of the present inventions, the inventors aimed to optimize FP differentiation by adding Sonic C25II at different time points during neural induction and assaying for FOXA2 expression. Differentiation was initiated upon NSB exposure, and Sonic C25II was added at Day 1, Day 3, Day 5, or Day 7 (FIG. 2A).

hESC = experiment: Real-Time PCR of pluripotency and germ layer markers in treated hESC
Experimental: Cells and Culture Conditions (dual SMAD and floor plate). hESCs (WA-09; passages 35-45) were cultured on mouse embryonic fibroblasts plated at 12-15,000 cells/cm2 (MEFs, Global Stem). A medium of DMEM/F12, 20% knockout serum replacement (GIBCO), 0.1 mM b-mercaptoethanol, 6 ng/mL FGF-2 was changed daily. Cells were passaged using 6 U/mL of dispase in hESCs media, washed and re-plated at a dilution of 1:5 to 1:10. Neural Induction (Dual SMAD). hESC cultures were disaggregated using accutase for 20 minutes, washed using hESC media and pre-plated on gelatin for 1 hour at 37° C. in the presence of ROCK inhibitor to remove MEFs. The nonadherent hESC were washed and plated on matrigel at a density of 10,000-25,000 cells/cm^2 on matrigel (BD) coated dishes in MEF conditioned hESC media (CM) spiked with 10 ng/mL of FGF-2 and ROCK-inhibitor. […] The ROCK inhibitor was withdrawn, and hESC were allowed to expand in CM for 3 days or until they were nearly confluent. The initial differentiation media conditions included knock out serum replacement (KSR) media with […] TGF-beta inhibitor (SB431542, Tocris) and 500 ng/mL of Noggin (R&D). Upon day 5 of differentiation, the TGF-b inhibitor was withdrawn and increasing amounts of N2 media (25%, 50%, 75%) was added to the KSR media every two days while maintaining 500 ng/mL of Noggin. For MS5 induction, established methods previously reported were used^18. Quantitative Real-Time (Dual SMAD). Total RNA was extracted using an RNeasy kit (Qiagen). For each sample, 1 ug of total RNA was treated for DNA contamination and reverse transcribed using the Quantitect RT kit (Qiagen). Amplified material was detected using Quantitect SYBR green probes and PCR kit (Qiagen) on a Mastercycler RealPlex2 (Eppendorf). Results were normalized to a HPRT control and are from 4-6 technical replicates of 2-3 independent biological samples at each data point. Neuronal Patterning and Differentiation (Dual SMAD). Dopaminergic patterning was initiated using BDNF, ascorbic acid, sonic hedgehog, and FGF8 in N2 media as previously reported^18, and maturation was performed in the presence of BDNF, ascorbic acid, GDNF, TGFb-1, and cyclic-AMP. Motor neuron patterning was performed using BDNF, ascorbic acid, sonic hedgehog, and retinoic acid in N2 media as previously reported^16. Microscopy, Antibodies, and Flow Cytometry (Dual SMAD). Tissue was fixed using 4% paraformaldehyde for 20 minutes, washed with PBS, permeablized using 0.5% Triton X in PBS, and blocked using 1% BSA in PBS. Primary antibodies used for microscopy included PAX6 (Covance), Oct4 (Biovision), AP2 (Novus Biologicals), GBX2 (Sigma), HNK1 (Sigma), HOXB4 (Developmental Studies Hybridoma Bank (DSHB)), Nestin (R&D), NKX6.1 (DSHB), OTX2 (gift), p75 (Advanced Target Systems.), PAX7 (DSHB), PLZF (Calbiochem), TUJ1 (Covance), ZO1 (Zymed), BF1 (FOXG1, gift Esseng Lai), TH (Sigma), HB9 (DSHB), ISL1 (DSHB). CD105-PE (eBioscience) was used for excluding MS5 stromal cells for flow cytometery on a FACS can (BD). Floor Plate: Neural Induction.

hESCs [3] = experiment: qRT-PCR of FP, AN and regional markers during FP induction
Experimental: as §1
Total RNA was extracted using an RNeasy kit (Qiagen). For each sample, 1 ug of total RNA was treated for DNA contamination and reverse transcribed using the Superscript III (Invitrogen). Amplified material was detected using Taqman probes and PCR mix (ABI) on a Mastercycler RealPlex2 (Eppendorf). All results were normalized to a HPRT control and are from 3 technical replicates of 3 independent biological samples at each data point.
FOXA2 is a key marker of FP development. However, FOXA2 is also highly expressed in the endoderm. To further characterize the hESC derived putative FP tissue, the inventors performed qRT-PCR analyses for candidate markers at Day 11. […] The inventors further characterized the nature of FOXA2+ putative FP cells using a panel of neural precursor, glial, neuronal and non-neural markers (FIG. 7). […] To distinguish FOXA2 expression in hESC derived FP versus endoderm tissue, the inventors differentiated hESCs to endoderm (D'Amour et al., 2005).
To gain further insight into the factors critical for human FP specification, high resolution temporal gene expression profiles of candidate markers were performed at 6 time points during the 11 day protocol.
The inventors contemplated the use of SIX6 as a putative marker of anterior FP identity. Thus SIX6 status of the hESC derived FP was used to mark respecification in response to known caudalizing agents such as FGF8, Wnt-1, and Retinoic Acid. Each of these caudalizing factors was added in combination with SHH and the resulting tissue was assessed for expression of the FP markers FOXA2 and NETRIN-1, the AN marker BF1, and putative anterior FP marker SIX6.

hESCs derived FP = experiment: SHH enhancer (SBE1/SBE2) LacZ constructs in hESC derived FP
From the text: As mentioned above, studies had identified different enhancers that directed SHH expression to different A/P region along ventral axis (Jeong et al., 2008). […] In the absence of caudalizing factors (SHH C25II alone), LacZ expression was observed herein following transfection with the SBE2 but not the SBE1 enhancer supporting the hypothesis that hESC derived FP is anterior by default (FIG. 6C). In contrast SBE2 activity was abolished upon treatment with Wnt1 or FGF8 while SBE1 activity was induced under these conditions.

[4] = caudalizing factor added in combination with SHH

| Molecule | FP competency of neural rosette stage cells [1] | CDX2 expression (hESC) | SIX6 expression (hESCs [3]; [4]) | SBE1 enhancer activity (LacZ) (hESCs derived FP) | SBE2 enhancer activity (LacZ) (hESCs derived FP) | further results |
| --- | --- | --- | --- | --- | --- | --- |
| O=C1Nc2cc(Br)ccc2/C1=C1/Nc2ccccc2/C1=N\O [BIO, reference compound] | not sufficient to induced FP competency | – | – | – | – | FOXA2 expression (hESCs [2]): can increase FOXA2 expression |
| NC(=O)c1ccc(-c2nc(-c3ccc4c(c3)OCO4)c(-c3ccccn3)[nH]2)cc1 [SB431542, 4-[4-(1,3-benzodioxol-5-yl)-5-(2-pyridinyl)-1H-imidazol-2-yl]-benzamide] | – | dramatic increase | – | – | – | Brachyury expression (mesodermal lineage) (hESC): suppression of Brachyury; Nanog expression (hESC; hESC in KSR): rapid loss of Nanog expression; also recorded: most dramatic downregulation |
| Noggin | – | Suppression of CDX2 | – | – | – | SOX17 expression (endodermal lineage) (hESC): suppression of SOX17 |
| B1 | not sufficient to induced FP competency | – | significant reduction in SIX6 expression | induced | abolished | FP production based on FOXA2 and Netrin-1 expression (hESCs [3]; added in combination with SHH): significantly potentiated FP production; BF1 expression (hESCs [3]; [4]): dramatic reduction in BF1 expression; midbrain FP markers CORIN and NOV and DA progenitor markers LMX1B, EN1, NGN2 (hESCs [3]; qPCR): significant increase |
| B2 | not sufficient to induced FP competency | – | – | – | – | – |
| B3 | – | – | significant reduction in SIX6 expression | induced | abolished | – |
